Strand notation (5' to 3'): a small letter for the sugar, then the base; units joined by * are phosphorothioate-linked, units joined directly phosphodiester-linked; [ ] holds rarer units or linkages, { } end groups; capitals alone tell only the bases. m = 2'-O-methyl; r = 2'-OH (RNA)
How the values were obtained:
TTR [1] = assay: TTR editing in primary human hepatocytes treated with LNP formulated Spy Cas9 mRNA (SEQ ID NO: 2) and sgRNAs, 12.5 ng mRNA; type: cell-based; conditions: LNP formulated Spy Cas9 mRNA (SEQ ID NO: 2) and sgRNA, 12.5 ng mRNA, 3.9 nM sgRNA, 72 hours
Experimental: (§1) Primary liver hepatocytes. Primary human liver hepatocytes (PHH) and primary cynomolgus liver hepatocytes (PCH) (Gibco) were cultured per the manufacturer's protocol (Invitrogen, protocol 11.28.2012). In brief, the cells were thawed and resuspended in hepatocyte thawing medium with supplements (Gibco, Cat. CM7000) followed by centrifugation at 100 g for 10 minutes for human and 80 g for 4 minutes for cyno. The supernatant was discarded and the pelleted cells resuspended in hepatocyte plating medium plus supplement pack (Invitrogen, Cat. A1217601 and CM3000). Cells were counted and plated on Bio-coat collagen I coated 96-well plates (ThermoFisher, Cat. 877272) at a density of 33,000 cells/well for human or 60,000 cells/well for cyno (or 65,000 cells/well when assaying effects on TTR protein, described further below). Plated cells were allowed to settle and adhere for 6 or 24 hours in a tissue culture incubator at 37° C. and 5% CO2 atmosphere. After incubation cells were checked for monolayer formation and media was replaced with hepatocyte culture medium with serum-free supplement pack (Invitrogen, Cat. A1217601 and CM4000).
In general, the lipid nanoparticle components were dissolved in 100% ethanol with the lipid component of various molar ratios. The RNA cargos were dissolved in 25 mM citrate, 100 mM NaCl, pH 5.0, resulting in a concentration of RNA cargo of approximately 0.45 mg/mL. The LNPs were formulated with a lipid amine to RNA phosphate (N:P) molar ratio of about 4.5 or about 6, with the ratio of mRNA to gRNA at 1:1 by weight.
The LNPs were formed by microfluidic mixing of the lipid and RNA solutions using a Precision Nanosystems NanoAssemblr™ Benchtop Instrument, according to the manufacturer's protocol. A 2:1 ratio of aqueous to organic solvent was maintained during mixing using differential flow rates. After mixing, the LNPs were collected, diluted in water (approximately 1:1 v/v), held for 1 hour at room temperature, and further diluted with water (approximately 1:1 v/v) before final buffer exchange. The final buffer exchange into 50 mM Tris, 45 mM NaCl, 5% (w/v) sucrose, pH 7.5 (TSS) was completed with PD-10 desalting columns (GE). If required, formulations were concentrated by centrifugation with Amicon 100 kDa centrifugal filters (Millipore). The resulting mixture was then filtered using a 0.2 μm sterile filter. The final LNP was stored at −80° C. until further use.
(§2) Additional PCR was performed per the manufacturer's protocols (Illumina) to add chemistry for sequencing. The amplicons were sequenced on an Illumina MiSeq instrument. The reads were aligned to a reference genome (e.g., the human reference genome (hg38), the cynomologus reference genome (mf5), the rat reference genome (rn6), or the mouse reference genome (mm10)) after eliminating those having low quality scores. The resulting files containing the reads were mapped to the reference genome (BAM files), where reads that overlapped the target region of interest were selected and the number of wild type reads versus the number of reads which contain an insertion, substitution, or deletion was calculated.
(§3) The editing percentage (e.g., the “editing efficiency” or “percent editing” or “indel frequency”) is defined as the total number of sequence reads with insertions/deletions (“indels”) or substitutions over the total number of sequence reads, including wild type.
Lipid nanoparticle formulations of modified sgRNAs targeting human TTR and the cyno matched sgRNA sequences were tested on primary human hepatocytes and primary cyno hepatocytes in a dose response curve. Primary human and cyno hepatocytes were plated as described in Example 1. Both cell lines were incubated at 37° C., 5% CO2 for 24 hours prior to treatment with LNPs. The LNPs used in the experiments detailed in Tables 18-21 were prepared using the Nanoassemblr™ procedure, each containing the specified sgRNA and Cas9 mRNA (SEQ ID NO:2), each having Lipid. […]

[2] = tested on: potential off-target genomic sites; assay: Off-target analysis by oligo insertion based assay in primary human hepatocytes (sgRNAs); type: cell-based; conditions: 100 ng Cas9 mRNA, 25 nM sgRNA, 12.5 nM donor oligo, 48 h
Experimental: Off-target analysis of sgRNAs targeting TTR was performed in primary human hepatocytes (PHH) as described in Example 5, with the following modifications. PHH were plated at a density of 33,000 cells per well on collagen-coated 96-well plates as described in Example 1. Twenty-four hours post plating, cells were washed with media and transfected using Lipofectamine RNAiMAX (ThermoFisher, Cat. 13778150) as described in Example 1. Cells were transfected with a lipoplex containing 100 ng Cas9 mRNA, immediately followed by the addition of another lipoplex containing 25 nM of the sgRNA and 12.5 nM of the donor oligo (0.3 μL/well). Cells were lysed 48 hours post-transfection and gDNA was extracted and analyzed as further described in Example 5. The data is graphically represented in FIG. 20.
Fewer sites were detected in PHH for every guide tested as compared to the HekCas9 cell line, with no unique sites detected in PHH alone.

TTR [3] = assay: TTR editing dose response (EC50, maximum editing) in primary cyno hepatocytes treated with LNP formulated U-depleted Spy Cas9 mRNA and sgRNAs; type: cell-based, cynomolgus monkey; conditions: LNP formulated U-depleted Spy Cas9 mRNA and cyno specific sgRNAs
Experimental: as §1
For LNPs prepared using the cross-flow technique, the LNPs were formed by impinging jet mixing of the lipid in ethanol with two volumes of RNA solutions and one volume of water. The lipid in ethanol is mixed through a mixing cross with the two volumes of RNA solution. A fourth stream of water is mixed with the outlet stream of the cross through an inline tee. (See WO2016010840 FIG. 2.) The LNPs were held for 1 hour at room temperature, and further diluted with water (approximately 1:1 v/v). Diluted LNPs were concentrated using tangential flow filtration on a flat sheet cartridge (Sartorius, 100 kD MWCO) and then buffer exchanged by diafiltration into 50 mM Tris, 45 mM NaCl, 5% (w/v) sucrose, pH 7.5 (TSS). Alternatively, the final buffer exchange into TSS was completed with PD-10 desalting columns (GE). If required, formulations were concentrated by centrifugation with Amicon 100 kDa centrifugal filters (Millipore). The resulting mixture was then filtered using a 0.2 μm sterile filter. The final LNP was stored at 4° C. or −80° C. until further use.
as §2, §3
Lipid nanoparticle formulations of modified sgRNAs targeting human TTR and the cyno matched sgRNA sequences were tested on primary human hepatocytes and primary cyno hepatocytes in a dose response curve. Primary human and cyno hepatocytes were plated as described in Example 1. Both cell lines were incubated at 37° C., 5% CO2 for 24 hours prior to treatment with LNPs. The LNPs used in the experiments detailed in Tables 20-22 were prepared using the cross-flow procedure described above but purified using PD-10 columns (GE Healthcare Life Sciences) and concentrated using Amicon centrifugal filter units (Millipore Sigma), each containing the specified sgRNA and Cas9 mRNA (SEQ ID NO:1). […] LNPs were incubated in hepatocyte maintenance media containing 6% cyno serum at 37° C., 5% CO2 for 5 minutes. […]

B1: G000492: TTR sgRNA modified sequence, Human, SEQ ID NO: 99; guide sequence of CR003342 (nucleic acid)
guide: mC*mU*mU*rCrUrCrUrArCrArCrCrCrArGrGrGrCrArCrGrUrUrUrUrArGrAmGmCmUmAmGmAmAmAmUmAmGmCrArArGrUrUrArArArArUrArArGrGrCrUrArGrUrCrCrGrUrUrArUrCrAmAmCmUmUmGmAmAmAmAmAmGmUmGmGmCmAmCmCmGmAmGmUmCmGmGmUmGmCmU*mU*mU*mU
- 12.5 ng mRNA, 3.9 nM sgRNA, Avg % Edit (TTR [1]): 15.87%
- # Sites in PHH (off-target integration sites detected) [2]: 5

B2: G000501: TTR sgRNA modified sequence, Human, SEQ ID NO: 108; guide sequence of CR005300 (nucleic acid)
guide: mU*mC*mA*rCrArGrArArArCrArCrUrCrArCrCrGrUrArGrUrUrUrUrArGrAmGmCmUmAmGmAmAmAmUmAmGmCrArArGrUrUrArArArArUrArArGrGrCrUrArGrUrCrCrGrUrUrArUrCrAmAmCmUmUmGmAmAmAmAmAmGmUmGmGmCmAmCmCmGmAmGmUmCmGmGmUmGmCmU*mU*mU*mU
- 12.5 ng mRNA, 3.9 nM sgRNA, Avg % Edit (TTR [1]): 32.30%
- # Sites in PHH (off-target integration sites detected) [2]: 0

B3: G000487: TTR sgRNA modified sequence, Human, SEQ ID NO: 94; guide sequence of CR003357 (nucleic acid)
guide: mU*mU*mC*rUrUrUrGrGrCrArArCrUrUrArCrCrCrArGrGrUrUrUrUrArGrAmGmCmUmAmGmAmAmAmUmAmGmCrArArGrUrUrArArArArUrArArGrGrCrUrArGrUrCrCrGrUrUrArUrCrAmAmCmUmUmGmAmAmAmAmAmGmUmGmGmCmAmCmCmGmAmGmUmCmGmGmUmGmCmU*mU*mU*mU
- 12.5 ng mRNA, 3.9 nM sgRNA, Avg % Edit (TTR [1]): 17.37%
- # Sites in PHH (off-target integration sites detected) [2]: 0

B4: G000498: TTR sgRNA modified sequence, Human, SEQ ID NO: 105; guide sequence of CR003359 (nucleic acid)
guide: mA*mG*mU*rGrArGrUrCrUrGrGrArGrArGrCrUrGrCrArGrUrUrUrUrArGrAmGmCmUmAmGmAmAmAmUmAmGmCrArArGrUrUrArArArArUrArArGrGrCrUrArGrUrCrCrGrUrUrArUrCrAmAmCmUmUmGmAmAmAmAmAmGmUmGmGmCmAmCmCmGmAmGmUmCmGmGmUmGmCmU*mU*mU*mU
- 12.5 ng mRNA, 3.9 nM sgRNA, Avg % Edit (TTR [1]): 24.43%
- # Sites in PHH (off-target integration sites detected) [2]: 19

B5: G000495: TTR sgRNA modified sequence, Human, SEQ ID NO: 102; guide sequence of CR003343 (nucleic acid)
guide: mC*mA*mG*rArGrGrArCrArCrUrUrGrGrArUrUrCrArCrGrUrUrUrUrArGrAmGmCmUmAmGmAmAmAmUmAmGmCrArArGrUrUrArArArArUrArArGrGrCrUrArGrUrCrCrGrUrUrArUrCrAmAmCmUmUmGmAmAmAmAmAmGmUmGmGmCmAmCmCmGmAmGmUmCmGmGmUmGmCmU*mU*mU*mU
- 12.5 ng mRNA, 3.9 nM sgRNA, Avg % Edit (TTR [1]): 23.97%
- # Sites in PHH (off-target integration sites detected) [2]: 1

B6: G000496: TTR sgRNA modified sequence, Human, SEQ ID NO: 103; guide sequence of CR005304 (nucleic acid)
guide: mG*mG*mC*rCrGrUrGrCrArUrGrUrGrUrUrCrArGrArArGrUrUrUrUrArGrAmGmCmUmAmGmAmAmAmUmAmGmCrArArGrUrUrArArArArUrArArGrGrCrUrArGrUrCrCrGrUrUrArUrCrAmAmCmUmUmGmAmAmAmAmAmGmUmGmGmCmAmCmCmGmAmGmUmCmGmGmUmGmCmU*mU*mU*mU
- 12.5 ng mRNA, 3.9 nM sgRNA, Avg % Edit (TTR [1]): 30.73%
- # Sites in PHH (off-target integration sites detected) [2]: 0

B7: G000491: TTR sgRNA modified sequence, Human, SEQ ID NO: 98; guide sequence of CR003338 (nucleic acid)
guide: mA*mU*mA*rCrCrArGrUrCrCrArGrCrArArGrGrCrArGrGrUrUrUrUrArGrAmGmCmUmAmGmAmAmAmUmAmGmCrArArGrUrUrArArArArUrArArGrGrCrUrArGrUrCrCrGrUrUrArUrCrAmAmCmUmUmGmAmAmAmAmAmGmUmGmGmCmAmCmCmGmAmGmUmCmGmGmUmGmCmU*mU*mU*mU
- 12.5 ng mRNA, 3.9 nM sgRNA, Avg % Edit (TTR [1]): 31.60%
- # Sites in PHH (off-target integration sites detected) [2]: 7

B8: G000485: TTR sgRNA modified sequence, Human, SEQ ID NO: 92; guide sequence of CR003336 (nucleic acid)
guide: mC*mC*mU*rCrCrUrCrUrGrCrCrUrUrGrCrUrGrGrArCrGrUrUrUrUrArGrAmGmCmUmAmGmAmAmAmUmAmGmCrArArGrUrUrArArArArUrArArGrGrCrUrArGrUrCrCrGrUrUrArUrCrAmAmCmUmUmGmAmAmAmAmAmGmUmGmGmCmAmCmCmGmAmGmUmCmGmGmUmGmCmU*mU*mU*mU
- 12.5 ng mRNA, 3.9 nM sgRNA, Avg % Edit (TTR [1]): 14.23%
- # Sites in PHH (off-target integration sites detected) [2]: 3

B9: G000503: TTR Cyno specific sgRNA modified sequence, SEQ ID NO: 115; guide sequence of CR005372 (nucleic acid)
guide: mA*mA*mA*rArGrGrCrUrGrCrUrGrArUrGrArGrArCrCrGrUrUrUrUrArGrAmGmCmUmAmGmAmAmAmUmAmGmCrArArGrUrUrArArArArUrArArGrGrCrUrArGrUrCrCrGrUrUrArUrCrAmAmCmUmUmGmAmAmAmAmAmGmUmGmGmCmAmCmCmGmAmGmUmCmGmGmUmGmCmU*mU*mU*mU
- Max Editing (TTR [3]): 83.41%

B10: G000497: TTR sgRNA modified sequence, Human, SEQ ID NO: 104; guide sequence of CR003335 (nucleic acid)
guide: mC*mU*mG*rCrUrCrCrUrCrCrUrCrUrGrCrCrUrUrGrCrGrUrUrUrUrArGrAmGmCmUmAmGmAmAmAmUmAmGmCrArArGrUrUrArArArArUrArArGrGrCrUrArGrUrCrCrGrUrUrArUrCrAmAmCmUmUmGmAmAmAmAmAmGmUmGmGmCmAmCmCmGmAmGmUmCmGmGmUmGmCmU*mU*mU*mU
- 12.5 ng mRNA, 3.9 nM sgRNA, Avg % Edit (TTR [1]): 15.10%
- # Sites in PHH (off-target integration sites detected) [2]: 3

Reference: patent US20230035659A1, “Compositions and Methods for TTR Gene Editing and Treating ATTR Amyloidosis Comprising a Corticosteroid or Use Thereof” (Intellia Therapeutics, Inc., priority 2019, published 2023)
